B1: S. pombe Csm1 C-terminal globular domain (residues 125–261), wild type [S. pombe] / Sp Mis13 5–17 peptide (Dsn1-N/Box 1), fluorescein isothiocyanate-labelled [modified: fluorescein isothiocyanate-labelled at its N-terminus; fluorescein … (parent complex)
chain 1: NAGADADDTIVKDLKKELENEKKANHSLKNELLKTREQIKNYSKINILIKELFGLEVADCIEDEDGYRFNCKNTGRRGTLEYQLLLDDQNFTFTPRLNVQTDEELMKHLPDYLLEEIIFTKEQGKLFSARLMKALQD
chain 2: PEEQEGFVFVRKG

Consider one variant from PMC6823300, “The molecular basis of monopolin recruitment to the kinetochore” (Chromosoma, 2019).

Variants of B1 are the subject of the experiment. As to the kind of experiment: fluorescence polarisation; point at 250 µM protein (highest concentration shown); parent: 140; read off a plot. For orientation: Fluorescence polarisation rises when a labelled molecule tumbles more slowly, as on binding a larger partner.
With chain 1 NAGADADDTIVKDLKKELENEKKANHSLKNELLKTREQIKNYSKINILIKELFGLEVADCIEDEDGYRFNCKNTGRRGTLEYQLLLDDQNFTFTPRLNVQTDEELMKHLPDYLLEEDIFTKEQGKLFSARLMKALQD [chain 1 I117D], the response was about 73 mP.
